The supplement of paper PMC12667976
± gives the standard error.

B1: library; numbered along this chain (parent)
chain: MATDAALRRLLRLHRTEIAVAVDSAFPLLHALADHDVVPEDKFQETLHLKEKEGCPQAFHALLSWLLTQDSTAILDFWRVLFKDYNLERYGRLQPILDSFPKDVDLSQPRKGRKPPAVPKALVPPPRLPTKRKASEEARAAAPAALTPRGTASPGSQLKAKPPKKPESSAEQQRLPLGNGIQTMSASVQRAVAMSSGDVPGARGAVEGILIQQVFESGGSKKCIQVGGEFYTPSKFEDSGSGKNKARSSSGPKPLVRAKGAQGAAPGGGEARLGQQGSVPAPLALPSDPQLHQKNEDECAVCRDGGELICCDGCPRAFHLACLSPPLREIPSGTWRCSSCLQATVQEVQPRAEEPRPQEPPVETPLPPGLRSAGEEVRGPPGEPLAGMDTTLVYKHLPAPPSAAPLPGLDSSALHPLLCVGPEGQQNLAPGARCGVCGDGTDVLRCTHCAAAFHWRCHFPAGTSRPGTGLRCRSCSGDVTPAPVEGVLAPSPARLAPGPAKDDTASHEPALHRDDLESLLSEHTFDGILQWAIQSMARPAAPFPS

Variants of: B1
Test: AIRE transcriptional activation functional score (insulin promoter-GFP; nonsense median 0, synonymous median 1) (normalised score); higher = higher AIRE activity (more reporter activation)
Details: with insulin promoter-GFP reporter in HEK293
Protocol: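 Deep mutational scan of full-length human AIRE (codon-optimized cDNA, DT-POPCode NNN libraries over three regions) integrated at a Bxb1 landing pad in HEK293 cells carrying an insulin core promoter-GFP reporter at a Flp-In site. Cells were sorted for the top 10% GFP about 14 days after transfection. Variant frequency log-ratios (select vs non-select, TileSeq) were rescaled so that the nonsense median is 0 and the synonymous median is 1, then averaged over biological replicates.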

AIRE transcriptional activation functional score: each site, then its substitutions
K50: L 0.404 ± 0.62 | M 0.465 ± 0.05 | N 1.59 ± 0.23 | P -0.341 ± 0.68 | R 0.745 ± 0.42 | S 2.07 ± 0.82 | T 0.51 ± 0.5 | V 0.73 ± 0.45 | W 0.149 ± 0.11 | Y -0.654 ± 0.44
E51: A 0.128 ± 0.27 | C -0.0446 ± 0.41 | D 0.852 ± 0.23 | F -0.754 ± 0.3 | G 0.279 ± 0.29 | H 0.0447 ± 0.07 | I -1.54 ± 0.37 | K 0.391 ± 0.53 | L 0.248 ± 0.5 | M -1.54 ± 0.85 | N -2.61 ± 0.17 | P -0.179 ± 0.61 | Q 0.593 ± 0.1 | R 0.215 ± 0.32 | S -0.885 ± 0.57 | T -0.0714 ± 0.14 | V 0.0642 ± 0.14 | W -0.495 ± 0.11 | Y -0.775 ± 0.19
K52: A 1.01 ± 0.14 | C -0.346 ± 0.18 | D 0.601 ± 0.17 | E 0.994 ± 0.58 | F 0.16 ± 0.23 | G 0.435 ± 0.41 | H -0.455 ± 0.25 | I 0.794 ± 0.38 | L 1.11 ± 0.4 | M 2.46 ± 0.48 | N -0.178 ± 0.3 | P -0.13 ± 0.73 | Q -0.353 ± 0.24 | R 0.664 ± 0.35 | S 0.883 ± 0.3 | T 1.21 ± 0.53 | V 1.38 ± 0.28 | W -0.861 ± 0.18 | Y 0.198 ± 0.39
E53: A 1.12 ± 0.17 | C 1.45 ± 0.33 | D 0.593 ± 0.21 | F 0.611 ± 0.43 | G -0.0905 ± 0.58 | H 0.435 ± 0.54 | I 1.49 ± 0.51 | K 1.55 ± 0.32 | L 1.14 ± 0.54 | M 0.544 ± 0.27 | N 0.151 ± 0.6 | P -0.371 ± 0.49 | Q 0.948 ± 0.95 | R -0.133 ± 0.6 | S 0.701 ± 0.54 | T 1.37 ± 0.61 | V 1.36 ± 0.5 | W 1.2 ± 0.36 | Y -0.0622 ± 1.2
G54: A -0.977 ± 0.69 | C 0.165 ± 0.19 | D 0.773 ± 0.27 | E 0.772 ± 0.34 | F -0.19 ± 0.42 | H 0.133 ± 0.29 | I 0.416 ± 0.43 | L -0.0223 ± 0.78 | M 0.663 ± 0.19 | N -1.62 ± 0.24 | P -0.123 ± 0.31 | Q -0.474 ± 0.064 | R -0.991 ± 0.58 | S -0.808 ± 0.76 | T -1.14 ± 0.59 | V 0.385 ± 0.17 | W 0.0658 ± 0.092 | Y 0.671 ± 0.86
C55: A -0.603 ± 0.34 | D 0.495 ± 0.29 | F 0.897 ± 0.1 | G -0.175 ± 0.35 | H 0.145 ± 0.14 | I 1.19 ± 0.74 | L -0.0993 ± 1.2 | N -0.172 ± 0.48 | P 0.602 ± 0.51 | Q -0.411 ± 0.27 | R 0.308 ± 0.33 | S -0.196 ± 0.59 | T 1.49 ± 0.65 | V 0.628 ± 0.59 | W -0.244 ± 0.25 | Y 0.622 ± 0.23
P56: A 0.549 ± 0.53 | C -0.173 ± 0.26 | D -0.102 ± 0.4 | E -1.9 ± 0.27 | F 0.968 ± 0.21 | G 0.501 ± 0.21 | H 0.985 ± 0.52 | I 0.82 ± 0.12 | K 1.48 ± 0.16 | L -0.0629 ± 0.36 | M -0.903 ± 0.46 | N 0.0217 ± 0.061 | Q 0.746 ± 0.56 | R 0.352 ± 0.45 | S 0.484 ± 0.56 | T 0.544 ± 0.39 | V 0.829 ± 0.67 | W 0.16 ± 0.16 | Y -0.155 ± 0.82
Q57: A 1.25 ± 0.88 | C -0.141 ± 0.37 | E 0.685 ± 0.54 | F 0.269 ± 0.08 | G -0.774 ± 0.8 | H -0.168 ± 0.11 | I 0.761 ± 0.91 | K 1.12 ± 0.16 | L 1.41 ± 0.39 | M -0.643 ± 0.11 | N -0.0973 ± 0.88 | P -0.527 ± 0.52 | R 0.643 ± 0.75 | S 0.217 ± 0.41 | T 0.369 ± 0.64 | V 0.739 ± 0.5 | W -0.29 ± 0.23 | Y 0.535 ± 0.2
A58: C -0.141 ± 0.25 | D 0.158 ± 0.1 | E -0.0545 ± 0.48 | F 0.0934 ± 0.1 | G -0.107 ± 0.23 | H -0.263 ± 0.4 | I -0.388 ± 0.57 | K -1.14 ± 0.57 | L 0.0439 ± 0.2 | M -0.0857 ± 0.12 | N -1.13 ± 0.62 | P -0.271 ± 0.71 | Q -0.509 ± 0.4 | R 0.31 ± 0.42 | S -0.0331 ± 0.37 | T 0.166 ± 0.52 | V 0.221 ± 0.19 | W 0.0998 ± 0.12 | Y -0.204 ± 0.2
F59: A 0.101 ± 0.57 | C -0.268 ± 0.16 | D 0.139 ± 0.28 | E 0.561 ± 0.19 | G 0.194 ± 0.51 | H 0.308 ± 0.5 | I 0.997 ± 0.48 | K 0.387 ± 0.09 | L 0.0546 ± 0.18 | M 0.656 ± 0.15
